PMC4369318

Target: protective antigen (PA63 as LTx) in plasma or serum of subjects with inhalation anthrax (Bacillus anthracis (secreted during infection of rhesus macaques and humans))
Assay: co-IP

Chain of protective antigen (PA63 as LTx) in plasma or serum of subjects with inhalation anthrax (Bacillus anthracis (secreted during infection of rhesus macaques and humans)) (P13423 30-764): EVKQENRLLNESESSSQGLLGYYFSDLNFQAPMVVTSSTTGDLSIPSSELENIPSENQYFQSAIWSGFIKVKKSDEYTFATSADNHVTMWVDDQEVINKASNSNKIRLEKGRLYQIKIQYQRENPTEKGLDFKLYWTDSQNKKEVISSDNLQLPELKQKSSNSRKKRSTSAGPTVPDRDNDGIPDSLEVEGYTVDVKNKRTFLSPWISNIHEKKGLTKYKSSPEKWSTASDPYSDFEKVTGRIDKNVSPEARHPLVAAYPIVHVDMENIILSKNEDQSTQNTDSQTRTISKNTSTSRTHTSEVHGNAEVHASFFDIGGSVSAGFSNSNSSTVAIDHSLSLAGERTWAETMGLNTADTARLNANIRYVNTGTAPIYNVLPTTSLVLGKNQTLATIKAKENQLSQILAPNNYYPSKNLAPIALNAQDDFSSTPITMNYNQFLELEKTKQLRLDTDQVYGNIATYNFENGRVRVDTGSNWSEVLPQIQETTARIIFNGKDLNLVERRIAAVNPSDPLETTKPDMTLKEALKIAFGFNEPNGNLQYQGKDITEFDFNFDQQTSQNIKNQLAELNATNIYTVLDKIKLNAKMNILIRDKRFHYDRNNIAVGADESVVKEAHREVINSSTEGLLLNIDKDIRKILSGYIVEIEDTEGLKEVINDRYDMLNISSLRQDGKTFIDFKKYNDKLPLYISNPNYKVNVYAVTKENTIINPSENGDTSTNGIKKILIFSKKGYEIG

“lethal factor (LF) in plasma or serum of subjects with inhalation anthrax (from UniProt P15917 34-809) (enzyme)” was tested, and the LTx as percent of total LF (animal 16N, terminal stage) was 100% and the LTx as percent of total LF (animal 89N, terminal stage) was 60%.
